Consider 91 sequences from the supplement of paper PMC9112550, “Optimization of the antimicrobial peptide Bac7 by deep mutational scanning” (BMC Biology, 2022).

The subject of this series is Escherichia coli TOP10. As to the kind of experiment: shrunken log2 fold change of peptide-encoding DNA abundance (4.5 h post-induction vs induction); higher = less antimicrobial activity (less host growth inhibition). Particulars: time post-induction: 4.5 h; library: site-saturation at positions 5, 18, 19, 20.
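Also: peptides expressed intracellularly from a pBAD plasmid library in pooled LB shake-flask culture, induced with 0.3% L-arabinose, DNA abundance read by NGS, three biological replicates, DESeq2 with apeglm shrinkage.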

Take RRIRYRPPRLPRPRPRPQTTPRP: the “shrunken log2 fold change” value is -0.0405. The result for RRIRTRPPRLPRPRPRPCSDPRP reads -0.104; that for RRIRSRPPRLPRPRPRPKKGPRP, 0.0379; that for RRIRPRPPRLPRPRPRPFDRPRP, 0.0133. Next, RRIRMRPPRLPRPRPRPCQFPRP: 0.0126; RRIRGRPPRLPRPRPRPYLIPRP: -0.0775; RRIRMRPPRLPRPRPRPAQWPRP: 0.533. As to RRIRQRPPRLPRPRPRPGTVPRP, the “shrunken log2 fold change” value was -0.00591. Next, RRIRGRPPRLPRPRPRPKFHPRP: 0.199; RRIRWRPPRLPRPRPRPDLDPRP: 0.311; RRIRVRPPRLPRPRPRPCVGPRP: 0.00147. Turning to RRIRQRPPRLPRPRPRPIMDPRP, the “shrunken log2 fold change” value was -0.179. Next, RRIRMRPPRLPRPRPRPIIKPRP: -0.265.

As for RRIRVRPPRLPRPRPRPYFTPRP, the “shrunken log2 fold change” value was -0.689. The result for RRIRVRPPRLPRPRPRPMDCPRP reads -0.0385; that for RRIRVRPPRLPRPRPRPICAPRP, -0.167. As for RRIRIRPPRLPRPRPRPMKTPRP, the “shrunken log2 fold change” value is -0.057. The result for RRIRPRPPRLPRPRPRPKAFPRP reads -0.198; that for RRIRCRPPRLPRPRPRPKNTPRP, -0.339; that for RRIRDRPPRLPRPRPRPVYWPRP, -0.469. The result for RRIRWRPPRLPRPRPRPCRKPRP reads -0.0352. Next, RRIRWRPPRLPRPRPRPTVLPRP: 0.188.

Consider RRIRYRPPRLPRPRPRPMIHPRP, for which the “shrunken log2 fold change” value is -0.0658. Next, RRIRKRPPRLPRPRPRPLAWPRP: 0.928; RRIRCRPPRLPRPRPRPFPDPRP: -0.415.

Consider RRIRTRPPRLPRPRPRPFWVPRP, for which the “shrunken log2 fold change” value was -0.0427. Next, RRIRWRPPRLPRPRPRPDSAPRP: 0.139. Next, RRIRCRPPRLPRPRPRPQPHPRP: 0.067; RRIRPRPPRLPRPRPRPGHAPRP: 0.461. As to RRIRSRPPRLPRPRPRPQKPPRP, the “shrunken log2 fold change” value was -0.0986.

Regarding RRIRERPPRLPRPRPRPDGKPRP, the “shrunken log2 fold change” value stood at 0.00926. The result for RRIRERPPRLPRPRPRPTRFPRP reads 0.169; that for RRIRYRPPRLPRPRPRPCGMPRP, -0.217. For the sequence RRIRARPPRLPRPRPRPMPNPRP, the “shrunken log2 fold change” value worked out at 0.353. The result for RRIRCRPPRLPRPRPRPHKSPRP reads 0.139; that for RRIRLRPPRLPRPRPRPMGNPRP, -0.147; that for RRIRLRPPRLPRPRPRPKLMPRP, -0.162.

In the case of RRIRSRPPRLPRPRPRPIVGPRP, the “shrunken log2 fold change” value came to 0.0247. Next, RRIRARPPRLPRPRPRPQMYPRP: -0.3; RRIRVRPPRLPRPRPRPQDKPRP: -0.603; RRIRQRPPRLPRPRPRPGMQPRP: 0.00486. The result for RRIRSRPPRLPRPRPRPAPIPRP reads 0.133. As to RRIRMRPPRLPRPRPRPKMQPRP, the “shrunken log2 fold change” value is 0.995.

Consider RRIRPRPPRLPRPRPRPIGVPRP, for which the “shrunken log2 fold change” value was found to be 0.108.

Regarding RRIRHRPPRLPRPRPRPQHYPRP, the “shrunken log2 fold change” value was -0.483. RRIRQRPPRLPRPRPRPFKCPRP: the “shrunken log2 fold change” value was found to be 0.00905. The result for RRIRARPPRLPRPRPRPIFRPRP reads 0.205; that for RRIRPRPPRLPRPRPRPMGHPRP, -0.145; that for RRIRQRPPRLPRPRPRPQVMPRP, 0.095. Next, RRIRQRPPRLPRPRPRPRARPRP: 0.579; RRIRARPPRLPRPRPRPIAFPRP: 0.222. For the sequence RRIRFRPPRLPRPRPRPRIMPRP, the “shrunken log2 fold change” value was -0.624. Next, RRIRQRPPRLPRPRPRPYLVPRP: -0.551; RRIRQRPPRLPRPRPRPKHSPRP: -0.0171; RRIRDRPPRLPRPRPRPDRQPRP: 0.0286. Next, RRIRDRPPRLPRPRPRPYRNPRP: -0.00595; RRIRLRPPRLPRPRPRPRRQPRP: 0.234. Next, RRIRDRPPRLPRPRPRPELDPRP: 1.47.

Consider RRIRCRPPRLPRPRPRPTRDPRP, for which the “shrunken log2 fold change” value came out at 0.104. Next, RRIRARPPRLPRPRPRPDNVPRP: -0.059. Next, RRIRYRPPRLPRPRPRPDMCPRP: -0.0185; RRIRERPPRLPRPRPRPLQPPRP: 0.468. Turning to RRIRVRPPRLPRPRPRPWNKPRP, the “shrunken log2 fold change” value is -0.635. The result for RRIRTRPPRLPRPRPRPFPTPRP reads 0.105. Consider RRIRQRPPRLPRPRPRPVGLPRP, for which the “shrunken log2 fold change” value is 0.35. Turning to RRIRSRPPRLPRPRPRPEGSPRP, the “shrunken log2 fold change” value came out at 0.223. Next, RRIRCRPPRLPRPRPRPWTMPRP: 0.0153; RRIRSRPPRLPRPRPRPNYSPRP: -0.401; RRIRKRPPRLPRPRPRPIMKPRP: 0.16. As for RRIRCRPPRLPRPRPRPDAMPRP, the “shrunken log2 fold change” value worked out at 0.0677.

RRIRKRPPRLPRPRPRPSEAPRP: the “shrunken log2 fold change” value was 0.401. As for RRIRMRPPRLPRPRPRPTGNPRP, the “shrunken log2 fold change” value worked out at 0.496. On to RRIRTRPPRLPRPRPRPVANPRP, for which the “shrunken log2 fold change” value is 0.133. Next, RRIRWRPPRLPRPRPRPVLAPRP: 0.582; RRIRTRPPRLPRPRPRPMHDPRP: -0.00302. The result for RRIRCRPPRLPRPRPRPNVCPRP reads -0.00167; that for RRIRDRPPRLPRPRPRPGFEPRP, 0.175; that for RRIRPRPPRLPRPRPRPWFDPRP, -0.278. The result for RRIRWRPPRLPRPRPRPLYPPRP reads -0.208; that for RRIRKRPPRLPRPRPRPDNCPRP, -0.0122; that for RRIRQRPPRLPRPRPRPLMYPRP, -0.608. For RRIRARPPRLPRPRPRPPFSPRP, the “shrunken log2 fold change” value is 0.137. The result for RRIRGRPPRLPRPRPRPMPEPRP reads 0.226; that for RRIRWRPPRLPRPRPRPLCDPRP, -0.0525; that for RRIRSRPPRLPRPRPRPKDMPRP, -0.123. The result for RRIRMRPPRLPRPRPRPPKIPRP reads 0.45. Next, RRIRWRPPRLPRPRPRPWIGPRP: 0.0176. Regarding RRIRVRPPRLPRPRPRPGPMPRP, the “shrunken log2 fold change” value was determined as 0.189.

Consider RRIRERPPRLPRPRPRPPLTPRP, for which the “shrunken log2 fold change” value was -0.0766. Next, RRIRFRPPRLPRPRPRPKCGPRP: 0.0559; RRIRNRPPRLPRPRPRPHWFPRP: -0.318.
